Legend:
HeLa cells [1] = conditions: at the concentrations used, treatment of 2-4 h; previous report; cited from earlier work
4T1 breast tumors = test: Ex vivo fluorescence imaging of tumor and organs after IV Alexa546-peptides; format: in vivo, mice; conditions: after IV administration
Description: 4T1 breast tumors were established by subcutaneous injection of 4T1 cells (8×10^5 cells/0.1 mL/flank) in the right flank of adult female BALB/c mice (about 19-22 g weight) obtained from Harlan Laboratories. When tumors reached about 6 mm in diameter single tail vein injections of 100 μl of 40 μM Alexa546-peptides were performed. […] At 4 h post-injection euthanization and necropsy was performed followed by ex vivo imaging of tumor, kidneys, liver, lungs and muscle. Mean fluorescence intensity of tumor and organs was calculated using Kodak software.

HeLa cells [2] = test: Fluorescent microscopy with Trypan Blue quenching; format: cell-based, Human; conditions: 5 μM, 30 min at pH 6.2 versus 7.4
Description: HeLa cells (8,000 cells per dish) were seeded in the center of a 35-mm dish with a 10-mm glass-bottom window coated with collagen (MatTek Corp). Next day cells were incubated with 5 μM of FITC-labeled c[E4W5C] (SEQ ID NO: 5) peptide for 30 min in DMEM medium without FBS at pH 7.4 or 6.2. Cells were washed 5 times at pH 7.4 and 0.4% Trypan Blue was added for 5 min ( 1/10 of the total volume). Fluorescent images were acquired with a Retiga CCD camera (Qimaging) mounted to an inverted Olympus IX71 microscope (Olympus America, Inc.).

[3] = Steady-state tryptophan fluorescence of peptides in buffer and with POPC liposomes; format: physicochemical; conditions: for S, normalized area under the spectra, Pep-PC, pH3: POPC liposomes pH 3; for S, normalized area under the spectra, Pep-PC, pH3 / S, normalized area under the spectra, Pep-PC, pH8: normalized to peptide at pH 8 without POPC; for S, normalized area under the spectra, Pep-PC, pH8: POPC liposomes pH 8; for λmax, Pep-PC, pH3: in the presence of POPC liposomes at pH 3; for λmax, Pep-PC, pH3 / λmax, Pep-PC, pH8 / λmax, maximum position of the fluorescence spectrum, Pep, pH8: excitation 280 nm; for λmax, Pep-PC, pH8: in the presence of POPC liposomes at pH 8; for λmax, maximum position of the fluorescence spectrum, Pep, pH8: peptide in phosphate buffer pH 8, no liposomes
Description: Liposomes such as Large Unilamellar Vesicles (LUVs) were prepared by extrusion. POPC, 1-palmitoyl-2-oleoyl-sn-glycero-3-phosphocholine (Avanti Polar Lipids), or a mixture of POPC with 0.5% of 18:1 NBD-PE, 1,2-dioleoyl-sn-glycero-3-phosphoethanolamine-N-7-nitro-2-1,3-benzoxadiazol-4-yl ammonium salt (Avanti Polar Lipids) were dissolved in chloroform, desolvated on a rotary evaporator, and dried under high vacuum for several hours. The phospholipid film was then rehydrated in 10 mM phosphate buffer pH 8.0, vortexed until the lipid bilayer was completely dissolved, and repeatedly (15-21 times) extruded through the membranes with 50 nm pore sizes to obtain LUVs.
Freshly prepared peptides and POPC vesicles were mixed to have 5 μM of a peptide and 1.25 mM of lipids in the final solution. Steady-state fluorescence measurements were carried out on a PC1 spectrofluorometer (ISS, Inc.) under temperature control at 25° C. Tryptophan fluorescence was excited at 280 nm (there is no Phe or Tyr in the peptides) and recorded with the excitation and emission slits set at 1 nm. The polarizers in the excitation and emission paths were set at the “magic” angle (54.7o from the vertical orientation) and vertically (0°), respectively. Steady state CD measurements were carried out in MOS 450 spectropolarimeter (Bio-Logic, Inc.) with the same concentrations of peptide and lipids as it were used in fluorescence measurements.

[4] = Dual quenching (acrylamide / 10-DN); format: physicochemical; conditions: POPC liposomes; for percentage of fluorescence quenching, Pep-PC + 10-DN pH3 / percentage of fluorescence quenching, Pep-PC + AC pH3: pH 3; for percentage of fluorescence quenching, Pep-PC + 10-DN pH8 / percentage of fluorescence quenching, Pep-PC + AC pH8: pH 8; for percentage of fluorescence quenching, Pep-PC + AC pH3 / percentage of fluorescence quenching, Pep-PC + AC pH8: acrylamide
Description: POPC liposomes without and with 10% of the lipids replaced by 10-doxylnonadecane (10-DN) (Avanti Polar Lipids) were prepared in 10 mM citrate-phosphate buffer pH 8.0. Peptides and POPC liposomes were mixed to generate final concentrations of 7 μM peptide and 2.1 mM POPC without and with 10-DN. […] To the samples of POPC liposomes containing no 10-DN, acrylamide (Sigma-Aldrich) was added to have a final concentration of 235 mM in solution. Concentration of peptides in all samples was kept constant. To observe quenching of tryptophan fluorescence by 10-DN or acrylamide, the tryptophan fluorescence was recorded as described above. The appropriate POPC blanks were measured and subtracted from the measured spectra before analysis. The percentage of quenching was calculated.
To establish localization of the peptides within a lipid bilayer of the membrane, a dual quenching assay (Caputo G A & London E (2003) Biochemistry 42(11):3265-3274) was used (FIG. 6 and Table 8). Effective quenching of fluorescence by acrylamide would occur only for tryptophan residues exposed to polar parts of outer or inner leaflets of the bilayer. At the same time, tryptophan residues located in the middle of a membrane would be effectively quenched by 10-DN. The result of the dual quenching assay allows the determination of whether tryptophan residues are located in the middle of a membrane or close to the polar headgroups of the bilayer. […] Therefore, FRET assays were also performed (McIntyre J C & Sleight R G (1991) Biochemistry 30(51):11819-11827; Clausell et al. (2006) J Phys Chem B 110(9):4465-4471) (FIG. 7). First, POPC liposomes symmetrically-labeled with NBD dye were prepared. Then, membrane-impermeable dithionite was used to modify chemically and quench the fluorescence of NBD at the outer leaflet of the bilayer followed by removal of dithionite by gel filtration. As a result, asymmetrically-labeled liposomes with NBD only at the inner leaflet were obtained. The c[E4W5C] […] All other peptides are located at the outer leaflet of the bilayer at pH 8. Among c[(WE)4WC] (SEQ ID NO: 2), c[(WE)5WC] (SEQ ID NO: 3), and c[(WE)3WC] (SEQ ID NO: 1) peptides, the peptide with smallest cycle, c[(WE)3WC]

HeLa cells [5] = format: cell-based, Human; conditions: up to 4 μM, 3 h at pH 7.4 or 6.0, viability at 48 h
Description: HeLa cells were loaded in the wells of 96-well plates (5,000 cells per well) and incubated overnight. Growth medium was replaced with the medium without FBS pH 6.0 or pH 7.4 containing increasing amounts of peptide-amanitin construct (0.5, 1, 2, and 4 μM). The construct was removed after 3 h. After 48 h of incubation in standard growth medium, a colorimetric reagent (CellTiter 96 AQueous One Solution Assay, Promega) was added for 1 h followed by measuring absorbance at 490 nm to assess cell viability. All samples were prepared in triplicate.

Row | Molecule | S, normalized area under the spectra, Pep-PC, pH3 [3] | S, normalized area under the spectra, Pep-PC, pH8 [3] | λmax, Pep-PC, pH3 [3] [nm] | λmax, Pep-PC, pH8 [3] [nm] | λmax, maximum position of the fluorescence spectrum, Pep, pH8 [3] [nm] | percentage of fluorescence quenching, Pep-PC + 10-DN pH3 [4] [%] | percentage of fluorescence quenching, Pep-PC + 10-DN pH8 [4] [%] | percentage of fluorescence quenching, Pep-PC + AC pH3 [4] [%] | further results
1 | CC[C@H](C)[C@@H]1NC(=O)CNC(=O)[C@@H]2Cc3c([nH]c4cc(O)ccc34)[S+]([O-])C[C@@H](NC(=O)CNC1=O)C(=O)N[C@@H](CC(N)=O)C(=O)N1C[C@H](O)C[C@H]1C(=O)N[C@@H]([C@@H](C)[C@@H](O)CO)C(=O)N2 (stereo partly drawn) [amanitin, alpha-amanitin] |  |  |  |  |  |  |  |  | cell death by amanitin alone (HeLa cells [1]): does not induce cell death
2 | N=C(N)NCCC[C@@H]1NC(=O)[C@H](CS)NC(=O)[C@H](Cc2c[nH]c3ccccc23)NC(=O)[C@H](Cc2c[nH]c3ccccc23)NC(=O)[C@H](Cc2c[nH]c3ccccc23)NC(=O)[C@H](Cc2c[nH]c3ccccc23)NC(=O)[C@H](Cc2c[nH]c3ccccc23)NC(=O)[C@H](CCCNC(=N)N)NC(=O)[C@H](CCCNC(=N)N)NC(=O)[C@H](CCCNC(=N)N)NC1=O [c[R4W5C]] |  |  |  |  |  |  |  |  | accumulation in tumor and other organs (4T1 breast tumors): very minimal
3 | FITC-labeled peptide: c[E4W5C] peptide conjugated with Fluorescein-5-maleimide (cyclo(EEEEWWWWWC); also: conjugated with fluorescein-5-maleimide, site not given here) |  |  |  |  |  |  |  |  | fluorescent signal of cells after Trypan Blue quenching, low pH compared to normal pH (HeLa cells [2]): higher level of the fluorescent signal
4 | c[(WE)3WC] (WEWEWEWC; cyclic) | 1.7 ± 0.3 | 0.9 ± 0.1 | 341.7 ± 0.2 | 349.1 ± 0.7 | 351.0 ± 0.2 | 47 | 6 | 63 | percentage of fluorescence quenching, Pep-PC + AC pH8 [4]: 83%
5 | c[(WE)5WC] (WEWEWEWEWEWC; cyclic) | 2.1 ± 0.3 | 1.5 ± 0.3 | 341.2 ± 0.4 | 346.7 ± 1.2 | 350.3 ± 0.2 | 40 | 1.3 | 68 | 
6 | c[E4W5C]-GMBS-amanitin (cyclo(EEEEWWWWWC); also: GMBS-linked amanitin conjugate) |  |  |  |  |  |  |  |  | cell death / cytotoxic effect of peptide-amanitin construct (HeLa cells [5]): reduced significantly at both pHs
7 | l(CW(EW)4) (CWEWEWEWEW) | 1.6 ± 0.4 | 2.3 ± 0.4 | 339.8 ± 0.6 | 346.6 ± 0.7 | 353.0 ± 0.7 | 31 | 20 | 56 | percentage of fluorescence quenching, Pep-PC + AC pH8 [4]: 81%
